# Measured values: patent US11306156
# Read-outs that look alike come from different tables or passages of the source.
# How the values were obtained:
# [1] = target: D3H44 light chain Q124E_V133W_S176T_T178L_T180E; assay: SMCA co-expression, LC-MS; competing light chain m6
# [2] = target: D3H44 light chain Q124E_V133W_S176T_T178L_T180E; assay: SMCA: 2 heavy + 2 light chains co-expressed, protein A, LC-MS; competing light chain m24
# [3] = target: D3H44 light chain Q38E_Q124E_Q160E_T180E; assay: SMCA: H1, H2, L1, L2 co-expressed in CHO-3E7, protein A, LC-MS; competitor light chain m8
# [4] = target: D3H44 light chain Q124E_Q160E_T178E; assay: SMCA: four chains co-expressed in CHO-3E7, protein A, LC-MS; competing light chain m35
# [5] = target: Trastuzumab light chain P44F_S131K; assay: SMCA: four chains co-expressed in CHO-3E7, protein A, LC-MS; competing light chain m16
# [6] = target: D3H44 light chain Q124E_Q160E_T180E; assay: SMCA: four chains co-expressed in CHO-3E7, protein A, LC-MS; competing light chain m18
# [7] = target: D3H44 light chain P44F_Q124R_Q160K_T178R; assay: SMCA: LC-MS of protein A purified product after co-expression of H1, H2, L1, L2 in CHO-3E7; competing light chain m46
# [8] = target: D3H44 light chain Q124E_Q160E_T180E; assay: SMCA: four chains co-expressed in CHO-3E7, protein A, LC-MS; competing light chain m21
# [9] = target: Trastuzumab light chain P44F_Q124R_Q160K_T178R; assay: SMCA: four chains co-expressed in CHO-3E7, protein A, LC-MS; competing light chain m16
# [10] = target: D3H44 light chain Q38E_Q124E_Q160E_T180E; assay: SMCA: four chains co-expressed in CHO-3E7, protein A, LC-MS; competing light chain m28
# [11] = target: D3H44 Fab heavy chain L124E_L143D_K145T (H1 of LCCA sets 9214, 9217, 9216, 9219, 9220, 9225, 9228, 9229); assay: LCCA: H1 co-expressed with L1 and L2 (DNA 333:250:749 ng), His-tag capture on SPR chip, light chain tags detected with anti-HA/anti-FLAG; competitor L2 Q124E_V133G_S176D_T178E_T180E
# [12] = target: D3H44 Fab heavy chain L124R_D146N_Q179K; assay: LCCA, L1:L2 DNA 1:3 normalised to 1:1, SPR of light chain tags; competitor m56
# [13] = target: D3H44 Fab heavy chain L124E_L143E_K145M; assay: as above
# [14] = target: D3H44 Fab heavy chain L124R_D146N_Q179K (H1 of LCCA sets 9358, 9359, 9357, 9351, 9352, 9353, 9354, 9350); assay: LCCA: H1 co-expressed with L1 and L2 (DNA 333:250:749 ng), His-tag capture on SPR chip, light chain tags detected with anti-HA/anti-FLAG; competitor L1 Q124E_V133G_S176D_T178E_T180E
# [15] = target: D3H44 Fab heavy chain L124E_L143D_K145T (H1 of LCCA sets 9214, 9217, 9216, 9219, 9220, 9225, 9228, 9229); assay: LCCA: H1 co-expressed with L1 and L2 (DNA 333:250:749 ng), His-tag capture on SPR chip, light chain tags detected with anti-HA/anti-FLAG; competitor L2 Q124E_V133G_S176D_T178D_T180E
# [16] = target: D3H44 Fab heavy chain L124E_L143E_K145M (H1 of LCCA sets 9269, 9266, 9267, 9260, 9262, 9263)
# [17] = target: D3H44 Fab heavy chain L124E_L143D_K145T (H1 of LCCA sets 9214, 9217, 9216, 9219, 9220, 9225, 9228, 9229)
# [18] = target: D3H44 Fab heavy chain L124E_L143E_K145M (H1 of LCCA sets 9269, 9266, 9267, 9260, 9262, 9263); assay: LCCA: H1 co-expressed with L1 and L2 (DNA 333:250:749 ng), His-tag capture on SPR chip, light chain tags detected with anti-HA/anti-FLAG; competitor L2 V133G_S176D_T178D_T180E
# [19] = target: D3H44 Fab heavy chain L124E_L143D_K145T (H1 of LCCA sets 9214, 9217, 9216, 9219, 9220, 9225, 9228, 9229); assay: as above
# [20] = target: D3H44 Fab heavy chain L124E_L143E_K145M (H1 of LCCA sets 9269, 9266, 9267, 9260, 9262, 9263); remark: listed apart in the source
# [21] = target: D3H44 Fab heavy chain L124E_L143D_K145T (H1 of LCCA sets 9214, 9217, 9216, 9219, 9220, 9225, 9228, 9229); remark: listed apart in the source
# [22] = target: D3H44 light chain Q124R_Q160K_T178R; assay: SMCA: H1, H2, L1, L2 co-expressed in CHO-3E7, protein A, LC-MS; competitor light chain m28
# [23] = target: D3H44 light chain Q124R_Q160K_T178R; assay: SMCA: LC-MS of protein A purified product after co-expression of H1, H2, L1, L2 in CHO-3E7; competing light chain m48
# D3H44 light chain Q124R = assay: SMCA: LC-MS of protein A purified product after co-expression of H1, H2, L1, L2 in CHO-3E7; competing light chain m50
# [24] = target: tissue factor (TF) antigen (UniProt P13726); assay: SPR; against wild-type D3H44 Fab; * estimated from the same Fab with another L chain tag
# [25] = target: tissue factor (TF) antigen (UniProt P13726); assay: SPR (ProteOn), Fab captured on anti-penta His, TF as analyte, 1:1 fit; * estimated from the same Fab with another L chain tag
# [26] = target: D3H44 light chain P44F_S131K; assay: SMCA: LC-MS of protein A purified product after co-expression of H1, H2, L1, L2 in CHO-3E7; competing light chain m46
# [27] = target: Trastuzumab light chain Q38R_S131K; assay: SMCA: four chains co-expressed in CHO-3E7, protein A, LC-MS; competing light chain m26
# [28] = target: D3H44 light chain Q124E_Q160E_T180E; assay: SMCA: H1, H2, L1, L2 co-expressed in CHO-3E7, protein A, LC-MS; competitor light chain m44
# [29] = target: D3H44 light chain Q124E_Q160E_T180E; assay: SMCA: four chains co-expressed in CHO-3E7, protein A, LC-MS; competing light chain m24
# [30] = target: D3H44 light chain Q38R_S131K; assay: SMCA: H1, H2, L1, L2 co-expressed in CHO-3E7, protein A, LC-MS; competitor light chain m4
# [31] = target: D3H44 light chain Q124E_N137K_Q160E_S174R_T180E; assay: SMCA: 2 heavy + 2 light chains co-expressed, protein A, LC-MS; competing light chain m38
# [32] = target: D3H44 light chain Q124E_Q160E_T180E; assay: SMCA: 2 heavy + 2 light chains co-expressed, protein A, LC-MS; competing light chain m4
# [33] = target: D3H44 light chain V133G_N137K_S174R_S176R; assay: SMCA: 2 heavy + 2 light chains co-expressed, protein A, LC-MS; competing light chain m48
# [34] = target: D3H44 light chain V133G_N137K_S174R_S176R; assay: SMCA co-expression, LC-MS; competing light chain m20
# [35] = target: D3H44 light chain V133G_N137K_S174R_S176R; assay: SMCA co-expression, LC-MS; competing light chain m24
substance,measurement,setting,value
D3H44 heavy chain L124A_L143F_Q179K (from UniProt P0DOX5 2-448),% H1L1 Pairing (over all H1 species),[1],100%
same,Change in % H1L1 Pairing (over all H1 species) with respect to wild type,[1],38.1%
same,% H1L1 Pairing (over all H1 species),[2],100%
D3H44 heavy chain Q39R_S186R (from UniProt P0DOX5 2-448),% H1L1 Pairing (over all H1 species),[3],100%
D3H44 full-length heavy chain S186K (from UniProt P0DOX5 2-448),% H1L1 Pairing (over all H1 species),[4],98.2%
Trastuzumab full-length heavy chain L45P_K145T_H172R_Q179E (from UniProt P0DOX5 2-448),% H2L2 Pairing (over all H2 species),[5],96.3%
D3H44 full-length heavy chain Q179K (from UniProt P0DOX5 2-448),% H1L1 Pairing (over all H1 species),[6],100%
D3H44 heavy chain L45P_L143E_K145T (from UniProt P0DOX5 2-448),% H1L1 Pairing (over all H1 species),[7],88.1%
D3H44 full-length heavy chain D146G_Q179K (from UniProt P0DOX5 2-448),% H1L1 Pairing (over all H1 species),[8],100%
Trastuzumab full-length heavy chain L45P_L143E_K145T (from UniProt P0DOX5 2-448),% H2L2 Pairing (over all H2 species),[9],94.8%
D3H44 full-length heavy chain Q39R_S186R (from UniProt P0DOX5 2-448),% H1L1 Pairing (over all H1 species),[10],100%
D3H44 light chain Q124K_V133G_S176R_T178K,"median LCCA performance normalized to a L1:L2 DNA ratio of 1:1 (ratio H1-L1:H1-L2), H1-L1 share (ratio part of 100)",[11],79
same,H2L2:H2L1 normalized median ratio,[12],16%
same,H1L1:H1L2 normalized median ratio,[13],84%
same,H1L1:H1L2 normalized median scalar value ln(r1/f1),[13],1.67
same,"median LCCA performance normalized to a L1:L2 DNA ratio of 1:1 (ratio H1-L1:H1-L2), H1-L2 share (ratio part of 100)",[14],16
same,"median LCCA performance normalized to a L1:L2 DNA ratio of 1:1 (ratio H1-L1:H1-L2), H1-L1 share (ratio part of 100)",[15],85
same,"median LCCA performance normalized to a L1:L2 DNA ratio of 1:1 (ratio H1-L1:H1-L2), H1-L1 share (ratio part of 100)",[16],88
same,"median LCCA performance normalized to a L1:L2 DNA ratio of 1:1 (ratio H1-L1:H1-L2), H1-L1 share (ratio part of 100)",[17],81
same,"median LCCA performance normalized to a L1:L2 DNA ratio of 1:1 (ratio H1-L1:H1-L2), H1-L1 share (ratio part of 100)",[18],63
same,"median LCCA performance normalized to a L1:L2 DNA ratio of 1:1 (ratio H1-L1:H1-L2), H1-L1 share (ratio part of 100)",[19],82
same,"median LCCA performance normalized to a L1:L2 DNA ratio of 1:1 (ratio H1-L1:H1-L2), H1-L1 share (ratio part of 100)",[20],85
same,"median LCCA performance normalized to a L1:L2 DNA ratio of 1:1 (ratio H1-L1:H1-L2), H1-L1 share (ratio part of 100)",[21],84
D3H44 heavy chain L143E_K145T_H172R (from UniProt P0DOX5 2-448),% H1L1 Pairing (over all H1 species),[22],100%
D3H44 heavy chain L143E_K145T (from UniProt P0DOX5 2-448),% H1L1 Pairing (over all H1 species),[23],83.2%
same,% H1L1 Pairing (over all H1 species),D3H44 light chain Q124R,91.5%
"D3H44 Fab heterodimer, H1 L124E_L143E_K145T / L1 Q124K_V133G_S176R_T178K (H1L1 of LCCA sets 9308 and 9300)",Change in KD with respect to wild type (-(log(KD design) - log(KD wt))),[24],-0.12
same,Kd,[25],0.21 nM
D3H44 heavy chain L45P_K145T_H172R_Q179E (from UniProt P0DOX5 2-448),% H1L1 Pairing (over all H1 species),[26],75.5%
Trastuzumab full-length heavy chain Q39E_K145T_Q179E (from UniProt P0DOX5 2-448),% H2L2 Pairing (over all H2 species),[27],94.3%
D3H44 heavy chain D146G_Q179K (from UniProt P0DOX5 2-448),% H1L1 Pairing (over all H1 species),[28],100%
D3H44 full-length heavy chain H172R_S186R (from UniProt P0DOX5 2-448),% H1L1 Pairing (over all H1 species),[29],100%
D3H44 heavy chain Q39E_K145T_Q179E (from UniProt P0DOX5 2-448),% H1L1 Pairing (over all H1 species),[30],100%
D3H44 heavy chain H172T_Q179K (from UniProt P0DOX5 2-448),% H1L1 Pairing (over all H1 species),[31],100%
D3H44 heavy chain H172R_S186R (from UniProt P0DOX5 2-448),% H1L1 Pairing (over all H1 species),[32],100%
D3H44 heavy chain L124E_H172T (from UniProt P0DOX5 2-448),% H1L1 Pairing (over all H1 species),[33],100%
same,% H1L1 Pairing (over all H1 species),[34],100%
same,Change in % H1L1 Pairing (over all H1 species) with respect to wild type,[34],38.1%
same,% H1L1 Pairing (over all H1 species),[35],50.5%
same,Change in % H1L1 Pairing (over all H1 species) with respect to wild type,[35],9.9%
